Target: endogenous BMP released from the ES cells (BMP4) (mouse) (UniProt P21275)
Test: cell-based or functional assay

UniProt P21275, sequence (P21275 293-408 limits assumed): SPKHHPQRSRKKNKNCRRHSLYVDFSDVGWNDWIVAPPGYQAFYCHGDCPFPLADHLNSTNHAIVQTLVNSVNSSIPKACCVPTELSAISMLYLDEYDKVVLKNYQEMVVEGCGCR

numbers of primary neural stem cell colonies generated (ES cells in LIF, 20% v/v mCer-1 supernatant): 50 % increase
Substance: mouse Cerberus-like (mCer-1) protein (from UniProt O55233 18-272) (ligand)

Source: patent US20020164791A1
